Assays:
[1] = molecular target: Kv1.3 K+ channel, wild-type, expressed in cells (species not stated) (Homo sapiens (Human)) (UniProt P22001); test: cell-based or functional assay
[2] = molecular target: KcsA-Kv1.3 (KcsA carrying a segment of the Kv1.3 pore loop)
[3] = molecular target: KcsA-Kv1.3 (KcsA carrying a segment of the Kv1.3 pore loop); remark: listed apart in the source
[4] = molecular target: KcsA-Kv1.3 (KcsA carrying a segment of the Kv1.3 pore loop); remark: listed apart in the source
[5] = molecular target: BK channel (species not stated); test: cell-based or functional assay
[6] = molecular target: Homo Kv1.3 (Homo) (UniProt P22001); test: cell-based or functional assay
[7] = molecular target: Kv1.1 K+ channel (species not stated); test: cell-based or functional assay
[8] = molecular target: Kv1.2 K+ channel (species not stated); test: cell-based or functional assay
[9] = molecular target: Homo Kv1.3 (Homo) (UniProt P22001); test: two-electrode voltage clamp, block of currents in Xenopus oocytes, dose-response fit
[10] = molecular target: Rattus Kv1.2 (Rattus) (UniProt P63142); test: two-electrode voltage clamp, kinetics of block in Xenopus oocytes
[11] = molecular target: Rattus Kv1.2 (Rattus) (UniProt P63142); test: two-electrode voltage clamp, block of currents in Xenopus oocytes, dose-response fit
[12] = molecular target: KcsA-Kv1.3 (KcsA carrying a segment of the Kv1.3 pore loop); remark: listed apart in the source
[13] = molecular target: KcsA-Kv1.3 (KcsA carrying a segment of the Kv1.3 pore loop); test: phage library panning on immobilized KcsA-1.3
[14] = molecular target: Kv1.3 K+ channel, wild-type, expressed in cells (species not stated) (Homo sapiens (Human)) (UniProt P22001); test: panning of a 2:2:96 phage mixture on HEK cells expressing Kv1.3
Target sequence in this assay (P22001 whole entry, form in doubt): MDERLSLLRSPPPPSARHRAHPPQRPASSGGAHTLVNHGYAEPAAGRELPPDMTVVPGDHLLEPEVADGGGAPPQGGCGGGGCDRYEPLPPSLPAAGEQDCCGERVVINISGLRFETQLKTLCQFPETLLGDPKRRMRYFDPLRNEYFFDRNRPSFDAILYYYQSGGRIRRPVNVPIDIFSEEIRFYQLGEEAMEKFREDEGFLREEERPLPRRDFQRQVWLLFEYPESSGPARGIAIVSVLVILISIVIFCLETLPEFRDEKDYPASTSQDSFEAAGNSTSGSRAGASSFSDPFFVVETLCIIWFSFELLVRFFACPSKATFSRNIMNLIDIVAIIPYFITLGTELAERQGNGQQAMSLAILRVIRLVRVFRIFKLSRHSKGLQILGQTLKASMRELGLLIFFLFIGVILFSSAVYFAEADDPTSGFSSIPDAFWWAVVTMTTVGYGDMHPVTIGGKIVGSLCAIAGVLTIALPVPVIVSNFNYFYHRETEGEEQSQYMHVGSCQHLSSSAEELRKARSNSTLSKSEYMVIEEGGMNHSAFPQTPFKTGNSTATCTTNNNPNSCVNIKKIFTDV

Chain of Homo Kv1.3 (Homo) (P22001 whole entry): as the sequence (P22001 whole entry, form in doubt) above
Chain of Rattus Kv1.2 (Rattus) (P63142 whole entry): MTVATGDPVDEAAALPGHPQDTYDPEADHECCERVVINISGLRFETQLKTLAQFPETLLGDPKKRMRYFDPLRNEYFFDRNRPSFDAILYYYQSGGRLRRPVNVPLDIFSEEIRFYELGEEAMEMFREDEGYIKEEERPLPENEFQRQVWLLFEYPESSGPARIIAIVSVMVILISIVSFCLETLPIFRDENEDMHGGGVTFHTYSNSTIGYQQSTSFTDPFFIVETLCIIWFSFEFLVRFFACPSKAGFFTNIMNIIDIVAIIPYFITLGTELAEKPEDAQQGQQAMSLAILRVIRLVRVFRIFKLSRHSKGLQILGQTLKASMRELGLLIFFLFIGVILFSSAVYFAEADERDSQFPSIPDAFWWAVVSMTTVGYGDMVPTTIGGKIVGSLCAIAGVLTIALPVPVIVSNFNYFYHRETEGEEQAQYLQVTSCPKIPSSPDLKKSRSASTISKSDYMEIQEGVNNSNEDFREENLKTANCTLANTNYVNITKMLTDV

“Ce3 (Centruroides elegans toxin Ce3) (peptide)” gave an approximate IC50 (nM) of channel block [1] of 366 nM.
Substance “Dendroaspis natriuretic peptide (DNP) phage (from UniProt P28374 1-38)” has an Output (% Ligands) [2] of 0%.
“Kaliotoxin-1 phage (KTX-phage) (peptide)” gave an Output (% Ligands) [2] of 100% and a Fold Enrichment [3] of 3.6 fold.
For “Shk phage (sea anemone K+ channel toxin ShK on phage) (peptide)”, the % phages, OUTPUT [4] was 20%.
“fasciculin-2 phage (from UniProt P0C1Z0 1-61) (peptide)” gave an Output (% Ligands) [2] of 0%.
In the case of mokatoxin-1 (MK-1), synthesized peptide, the approximate IC50 (nM) of channel block [5] is reported as > 1000 nM, the decrease in IL-2 secretion by CD3/CD28-activated human T cells at 10 nM [6] is reported as 50% and the decrease in TNF-α secretion by CD3/CD28-activated human T cells at 10 nM [6] is reported as 50%. For the same substance, the lowest concentration inhibiting cytokine secretion by T cells [6] was 1 nM, the approximate IC50 (nM) of channel block [7] was > 1000 nM and the approximate IC50 (nM) of channel block [8] was 680 nM. It also gave an approximate IC50 (nM) of channel block [1] of 3 nM and a Ki [9] of 1 nM.
“mokatoxin-1 (MK-1), synthesized peptide (peptide; other documents disagree on this pair)” gave a koff [10] of 0.16 s⁻¹, a kon [10] of 260000 M⁻¹ s⁻¹ and a Ki [11] of 620 nM.
mokatoxin-1-phage (peptide) showed a % of the phage isolated after two rounds of selection [12] of 60%, a % of the eluted phage after two rounds of panning [13] of 16.6% and a % of phages after the 2nd panning [14] of 15%.
